In assay [1] the target is mrtfa_human MRTFA (UniProt Q969V6).
The target is the same in assay [2]. This is another data set of the same source.

UniProt Q969V6, sequence (Q969V6 whole entry): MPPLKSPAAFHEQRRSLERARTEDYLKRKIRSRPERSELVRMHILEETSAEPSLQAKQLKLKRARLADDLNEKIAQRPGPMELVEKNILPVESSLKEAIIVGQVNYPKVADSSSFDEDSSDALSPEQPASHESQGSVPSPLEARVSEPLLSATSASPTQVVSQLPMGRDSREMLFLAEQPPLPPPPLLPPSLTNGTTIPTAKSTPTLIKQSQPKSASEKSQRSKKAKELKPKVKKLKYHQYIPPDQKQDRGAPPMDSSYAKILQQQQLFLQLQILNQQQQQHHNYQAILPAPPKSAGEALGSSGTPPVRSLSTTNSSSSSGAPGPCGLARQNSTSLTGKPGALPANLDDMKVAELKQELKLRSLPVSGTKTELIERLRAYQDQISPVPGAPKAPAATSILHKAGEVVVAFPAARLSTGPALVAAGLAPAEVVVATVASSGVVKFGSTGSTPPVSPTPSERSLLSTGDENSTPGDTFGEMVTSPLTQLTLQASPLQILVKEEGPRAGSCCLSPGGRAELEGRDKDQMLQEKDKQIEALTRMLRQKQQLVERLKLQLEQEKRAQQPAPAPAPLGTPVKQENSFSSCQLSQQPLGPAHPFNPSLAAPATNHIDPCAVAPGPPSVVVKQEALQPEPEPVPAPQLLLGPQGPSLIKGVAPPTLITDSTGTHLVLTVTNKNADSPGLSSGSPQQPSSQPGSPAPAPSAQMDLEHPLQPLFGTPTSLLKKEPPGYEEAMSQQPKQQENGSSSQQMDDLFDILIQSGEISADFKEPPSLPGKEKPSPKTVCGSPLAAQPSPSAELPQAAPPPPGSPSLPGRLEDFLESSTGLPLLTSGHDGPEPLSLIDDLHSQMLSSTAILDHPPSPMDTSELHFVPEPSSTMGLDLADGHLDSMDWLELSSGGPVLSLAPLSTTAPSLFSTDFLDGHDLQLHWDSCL

Regarding Filamin-A (Homo sapiens), P21333 S2152A, the figures for the “effect of a mutation on the interaction” value in assay [1] and in assay [2] were “decreasing interaction strength” and “disrupting interaction strength”, respectively.

These data come from IntAct's records for PubMed 36577757.
